Laboratory results from article PMC4532887, “Structural and mechanistic insights into phospholipid transfer by Ups1–Mdm35 in mitochondria” (Nature Communications, 2015).
Changes are numbered by the printed parent chain.

How the values were obtained:
Settings in all cases: both partners purified
[1] = target: T1, Ups1ΔC5 (Ups1 lacking the C-terminal five residues), N-terminally His6 tagged (S. cerevisiae, UniProt Q05776 1-170); assay: crystal structure; Ups1ΔC5–Mdm35ΔC5 complex without PA, 1.40 Å; sitting drop at 20 °C, 0.2 M ammonium citrate tribasic pH 7.0, 20% polyethylene glycol 3,350
T1 construct: Ups1, Saccharomyces cerevisiae; full length is 175 amino acids, this construct lacks the C-terminal five residues; No removal of the His6 tag is described; the complex with PA was purified again on Ni-NTA before crystallisation; also called His6-Ups1ΔC5; source: E. coli SHuffle T7, coexpressed with Mdm35ΔC5, purified (Ni-NTA, Superdex 200); not shown: His6, N-terminal, kept
T1 sequence (looked up): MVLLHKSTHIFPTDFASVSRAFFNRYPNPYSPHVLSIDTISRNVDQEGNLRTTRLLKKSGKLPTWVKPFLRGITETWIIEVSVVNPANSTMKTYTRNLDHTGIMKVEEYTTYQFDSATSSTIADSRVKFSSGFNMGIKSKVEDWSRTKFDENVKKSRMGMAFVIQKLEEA

[2] = target: T2, full-length His6-Ups1 K61E/K155E (S. cerevisiae, UniProt Q05776 1-175, K61E | K155E); assay: SEC; 10 μM full-length Ups1–Mdm35 complex (WT or mutant Ups1) after incubation with NBD-PA donor liposomes and centrifugation; supernatant on Superdex 200 10/300 GL; 20 mM Tris-HCl pH 7.5, 150 mM NaCl; absorbance at 280 and 460 nm
T2 construct: Ups1, Saccharomyces cerevisiae, full length (175 amino acids); source: E. coli SHuffle T7, coexpressed with Mdm35, purified (Ni-NTA, Superdex 200)
T2 sequence (looked up): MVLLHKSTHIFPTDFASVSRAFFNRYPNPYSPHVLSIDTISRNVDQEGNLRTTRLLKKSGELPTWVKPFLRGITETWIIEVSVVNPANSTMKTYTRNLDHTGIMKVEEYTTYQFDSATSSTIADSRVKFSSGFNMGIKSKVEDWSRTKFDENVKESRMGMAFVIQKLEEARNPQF

[3] = target: T3, full-length His6-Ups1 ΔLid (lacking the Ω1 loop, residues 62–71) (S. cerevisiae, UniProt Q05776 1-175, ΔLid (lacking residues 62–71)); assay: as above
T3 construct: Ups1, Saccharomyces cerevisiae, full length (175 amino acids) less residues 62-71; source: E. coli SHuffle T7, coexpressed with Mdm35, purified (Ni-NTA, Superdex 200)
T3 sequence (looked up): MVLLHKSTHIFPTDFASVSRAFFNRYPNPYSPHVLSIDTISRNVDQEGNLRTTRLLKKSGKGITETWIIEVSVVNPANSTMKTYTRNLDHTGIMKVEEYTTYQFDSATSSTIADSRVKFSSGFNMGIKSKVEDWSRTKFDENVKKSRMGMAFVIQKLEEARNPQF

[4] = target: T4, full-length His6-Ups1 R25K (S. cerevisiae, UniProt Q05776 1-175, R25K); assay: as above
T4 construct: Ups1, Saccharomyces cerevisiae, full length (175 amino acids); source: E. coli SHuffle T7, coexpressed with Mdm35, purified (Ni-NTA, Superdex 200)
T4 sequence (looked up): T2 sequence (looked up) with R25K, E61K, E155K

[5] = target: T5, full-length His6-Ups1 R25E (S. cerevisiae, UniProt Q05776 1-175, R25E); assay: as above
T5 construct: Ups1, Saccharomyces cerevisiae, full length (175 amino acids); source: E. coli SHuffle T7, coexpressed with Mdm35, purified (Ni-NTA, Superdex 200)
T5 sequence (looked up): T2 sequence (looked up) with R25E, E61K, E155K

[6] = target: T6, full-length His6-Ups1 K6E/K128E (S. cerevisiae, UniProt Q05776 1-175, K6E | K128E); assay: as above
T6 construct: Ups1, Saccharomyces cerevisiae, full length (175 amino acids); source: E. coli SHuffle T7, coexpressed with Mdm35, purified (Ni-NTA, Superdex 200)
T6 sequence (looked up): T2 sequence (looked up) with K6E, E61K, K128E, E155K

[7] = target: T7, full-length Ups1, N-terminally His6 tagged (from the His6–Ups1–Mdm35 complex) (S. cerevisiae, UniProt Q05776 1-175); assay: as above
T7 construct: Ups1, Saccharomyces cerevisiae, full length (175 amino acids); Added to the assays as the purified complex with Mdm35; also called WT Ups1; Ups1WT; source: E. coli SHuffle T7, coexpressed with Mdm35, purified (Ni-NTA, Superdex 200); not shown: His6, N-terminal, kept
T7 sequence (looked up): T2 sequence (looked up) with E61K, E155K

[8] = target: T8, full-length His6-Ups1 N24C (S. cerevisiae, UniProt Q05776 1-175, N24C); assay: cross-linking; disulfide bond between Ups1N24C and Mdm35N25C on separate chains; SDS–PAGE with or without β-mercaptoethanol, CBB staining
T8 construct: Ups1, Saccharomyces cerevisiae, full length (175 amino acids); In the pull-down with GST-Mdm35: the chain set free from Mdm35N25C by pretreatment with DTT; source: E. coli SHuffle T7, coexpressed with Mdm35N25C, purified (Ni-NTA, Superdex 200); not shown: His6, N-terminal, kept
T8 sequence (looked up): T2 sequence (looked up) with N24C, E61K, E155K

B1: Mdm35ΔC5 (Mdm35 lacking the C-terminal five residues) (domain or fragment, S. cerevisiae, UniProt O60200 1-81, looked up)
chain: MGNIMSASFAPECTDLKTKYDSCFNEWYSEKFLKGKSVENECSKQWYAYTTCVNAALVKQGIKPALDEAREEAPFENGGKL
notes: Mdm35, Saccharomyces cerevisiae; full length is 86 residues, this construct lacks the C-terminal five residues; The coexpression plasmid encodes GST-Mdm35ΔC5; the stated 31 kDa of the heterodimer implies that GST was no longer on the chain, but its removal from the complex is not described; For Mdm35 crystallised alone (4YTV) GST was cleaved with PreScission protease; Disulfides Cys13–Cys52 and …
binding result [1]: binds

B2: full-length Mdm35 (from the His6–Ups1–Mdm35 complex) (natural protein, S. cerevisiae, UniProt O60200 1-86, looked up)
chain: MGNIMSASFAPECTDLKTKYDSCFNEWYSEKFLKGKSVENECSKQWYAYTTCVNAALVKQGIKPALDEAREEAPFENGGKLKEVDK
notes: Mdm35, Saccharomyces cerevisiae, full length (86 residues); The coexpression plasmid encodes GST-Mdm35; also called Mdm35WT; source: E. coli SHuffle T7, coexpressed with His6-Ups1, purified (Ni-NTA, Superdex 200)
binding result [2]: binds | binding result [3]: binds | binding result [4]: binds | binding result [5]: binds | binding result [6]: binds | binding result [7]: binds

B3: full-length Mdm35 N25C (natural protein, S. cerevisiae, UniProt O60200 1-86, looked up)
chain: B2 chain with N25C
notes: Mdm35, Saccharomyces cerevisiae, full length (86 residues); The coexpression plasmid encodes GST-Mdm35; removal of GST is not described; source: E. coli SHuffle T7, coexpressed with His6-Ups1N24C, purified (Ni-NTA, Superdex 200)
binding result [8]: binds
